This data set concerns the molecule itself. Briefly: SDS-PAGE and Western blot of the purified protein; 1 ug purified histone on 16.5% Tris-Tricine SDS gels, Coomassie stain or Western blot with polyclonal anti-HTkA antibodies; dimers and higher-order species persist after extensive heating.

B1: Thermococcus kodakarensis histone A protein (HTkA^WT) (natural protein)
chain: not shown
notes: Histone A (HTkA) of Thermococcus kodakarensis, encoded by TK1413 on plasmid pTS600; No tag is mentioned; purified by heparin and size exclusion; also called TK1413; recombinant HTkA; source: E. coli Rosetta 2 (DE3), purified (heat treatment, HiTrap Heparin, Sephacryl S-100)
B1: the binding result is listed as “binds”.
